T1: mFc-Avi (mouse, UniProt P01863 99-330 = IgG part)
T1 construct: mouse Fc domain with Avi tag; negative control in the ELISA
T1 chain: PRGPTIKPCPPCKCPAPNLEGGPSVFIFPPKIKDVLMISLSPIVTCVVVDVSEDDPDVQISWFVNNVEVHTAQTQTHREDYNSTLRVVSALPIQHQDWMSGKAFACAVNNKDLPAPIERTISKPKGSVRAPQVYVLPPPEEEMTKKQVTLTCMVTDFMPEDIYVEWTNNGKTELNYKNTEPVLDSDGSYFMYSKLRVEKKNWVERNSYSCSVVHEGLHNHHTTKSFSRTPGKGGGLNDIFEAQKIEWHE

T2: human OX40-mFc (human, UniProt P43489 29-214)
T2 construct: produced in-house; negative control in the ELISA; also called human OX40-mFc-Avi; not shown: mFc part
T2 sequence: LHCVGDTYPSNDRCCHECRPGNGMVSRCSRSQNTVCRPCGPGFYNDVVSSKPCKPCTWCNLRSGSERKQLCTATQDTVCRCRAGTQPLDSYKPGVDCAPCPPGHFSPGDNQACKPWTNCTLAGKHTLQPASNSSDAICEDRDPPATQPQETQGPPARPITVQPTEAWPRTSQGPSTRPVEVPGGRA

T3: cyno CD137 on DO11.10-cCD137 cells (cynomolgus, UniProt Q07011 24-255 (human entry))
T3 construct: full-length cyno CD137 over-expressed on DO11.10 cells; also called cell surface-expressed cyno CD137
T3 chain: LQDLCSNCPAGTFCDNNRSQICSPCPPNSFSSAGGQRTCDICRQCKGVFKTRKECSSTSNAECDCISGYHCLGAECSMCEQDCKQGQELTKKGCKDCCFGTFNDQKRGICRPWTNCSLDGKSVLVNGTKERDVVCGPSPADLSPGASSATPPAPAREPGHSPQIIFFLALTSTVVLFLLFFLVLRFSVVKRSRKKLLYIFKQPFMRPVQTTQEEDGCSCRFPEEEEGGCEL


What was measured:
[1] = biological target: human CD137 on primary human CD8+ T cells (human, UniProt Q07011 24-255); experiment: cell-based or functional assay
streptavidin = biological target: T4, streptavidin (UniProt P22629 37-163, limits assumed); experiment: ELISA on streptavidin plates, mAb 0.1 to 300 nM
T4 construct: negative control in the ELISA; also called Streptavidin plates (Thermo Scientific, 15500)
Method: (§1) Blocking solution was discarded and a dilution series of anti-CD137 mAb concentrations (0.1 to 300 nM, 3-fold dilutions) was added and incubated for 1 hour at room temperature whilst shaking at 450 rpm. Plates were washed 3× with 300 µl PBS/Tween 0.05%. Goat anti-human IgG (Fc fragment) antibody conjugated to Horseradish Peroxidase (Sigma, A0170) was diluted 1:10000 in PBS and 90 µl was added to the wells. After incubation for 1 hour at 4° C. whilst shaking at 450 rpm, plates were washed 3× with 300 µl PBS/Tween 0.05%, 100 µl TMB substrate (eBioscience, 00-4201-56) was added to each well. The reaction was stopped between 2-10 minutes after addition of TMB by the addition of 50 µl 1M sulphuric acid solution. Optical density (OD) was read at 450-630 nm in a 96-well plate reader within 30 minutes of sulphuric acid addition and analysed using GraphPad Prism software (GraphPad Software, Inc.).

mFc-Avi = biological target: T1, mFc-Avi; experiment: ELISA on streptavidin plates, mAb 0.1 to 300 nM
Method: as §1

human OX40-mFc = biological target: T2, human OX40-mFc; experiment: ELISA on streptavidin plates, mAb 0.1 to 300 nM
Method: as §1

[2] = biological target: T5, human CD137 on DO11.10-hCD137 cells (human, UniProt Q07011 24-255); experiment: flow cytometry on DO11.10-hCD137 cells, GMFI vs concentration
T5 construct: full-length human CD137 over-expressed on DO11.10 cells by lentiviral transduction; also called cell surface-expressed human CD137
Method: (§2) Non-specific binding was also assessed by testing binding to DO11.10 cells and HEK293 cells lacking CD137 expression.
(§3) Briefly, DO11.10, HEK293, DO11.10-hCD137 or DO11.10-cCD137 suspensions were prepared in PBS containing 2% BSA (Sigma, A7906) and seeded at 4×10^6 cell/ml with 50 µl/well in V-bottomed 96-well plates (Costar, 3897). mAb dilutions (1·10^-6-100 nM, 10-fold dilutions) were prepared at 2× the final concentration in triplicate in 1×DPBS (Gibco, 14190-094). […] The cells were washed once with PBS and resuspended in 100 µl of PBS containing DAPI (Biotium, 40043) at 1 µg/ml. The cells were analysed using a Canto II flow cytometer (BD Bioscience). Dead cells were excluded and the fluorescence in the FITC channel (488 nm/530/30) was measured. The geometric mean fluorescence intensity (GMFI) values were plotted vs the log concentration of antibody and the resulting curves were fitted using the log (agonist) vs response equation in GraphPad Prism.
Target sequence in this assay (Q07011 24-255): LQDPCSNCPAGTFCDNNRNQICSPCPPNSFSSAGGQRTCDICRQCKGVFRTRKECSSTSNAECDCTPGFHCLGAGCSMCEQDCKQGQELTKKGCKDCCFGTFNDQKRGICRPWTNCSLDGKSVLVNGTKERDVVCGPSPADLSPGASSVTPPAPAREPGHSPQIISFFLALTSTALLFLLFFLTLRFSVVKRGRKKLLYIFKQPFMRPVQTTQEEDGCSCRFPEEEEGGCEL

[3] = biological target: T3, cyno CD137 on DO11.10-cCD137 cells; experiment: flow cytometry on DO11.10-cCD137 cells, GMFI vs concentration
Method: as §2, §3

[4] = biological target: T5, human CD137 on DO11.10-hCD137 cells; experiment: cell binding at 10 nM to DO11.10-hCD137 cells, against the parent FS20-22-49AA/FS30-16

Sequence of human CD137 on primary human CD8+ T cells (Q07011 24-255): as above
T4 sequence (P22629 37-163 limits assumed): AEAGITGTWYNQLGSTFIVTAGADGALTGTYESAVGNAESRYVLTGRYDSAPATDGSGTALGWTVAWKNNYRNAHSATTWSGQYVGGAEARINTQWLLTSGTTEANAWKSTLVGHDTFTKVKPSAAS

Activity of non-crosslinked mAbs at 100 nM (hIL-2 pg/ml) [1] [pg/mL]	EC50 (nM), hIL-2 release, primary human CD8+ T cell activation assay, crosslinked mAb [1] [nM]	Emax (hIL-2 pg/ml), crosslinked mAb [1] [pg/mL]	binding result (streptavidin)	binding result (mFc-Avi)	binding result (human OX40-mFc)	EC50 [2] [nM]	EC50 [3] [nM]	fold change of cell binding at 10 nM against the parent clone [4] [fold]	Binder
509	3.2	10900	no binding (tested: 300 nM)	no binding (tested: 300 nM)	no binding (tested: 300 nM)	0.24	0.45	–	G1AA/FS30-5 (antibody, human IgG1, kappa, L234A L235A, V domains shown, human IgG1 with LALA mutation in CH2; also called FS30-5 mAb) VH: EVQLLESGGGLVQPGGSLRLNCAASGFTFSSYAMSWVRQAPGKGLEWVSAISGSGGSTYYADSVKGRFTISRDNSKNTLYLQMNSLRAEDTAVYYCARSYDKYWGSSMYSGMDYWGQGTLVTVSS VL: EIVLTQSPGTLSLSPGERATLSCRASQSVSSSYLAWYQQKPGQAPRLLIYGASSRATGIPDRFSGSGSGTDFTLTISRLEPEDFAVYYCQQYYSYYPVTFGQGTKVEIKR
–	–	–	–	–	–	–	–	< 1.6	FS20-22-49AA/FS30-16 variant, Methionine (100A) to F (bispecific antibody, V domains shown, Single-site variant of the parent mAb^2 FS20-22-49AA/FS30-16) VH: EVQLLESGGGLVQPGGSLRLSCAASGFTFSNYAMHWVRQAPGKGLEWVSTIDPTDGATNYADSVKGRFTISRDNSKNTLYLQMNSLRAEDTAVYYCARSKYYTYFQYVALDYWGQGTLVTVSS VL: EIVLTQSPGTLSLSPGERATLSCRASQSVSSSYLAWYQQKPGQAPRLLIYGASSRATGIPDRFSGSGSGTDFTLTISRLEPEDFAVYYCQQGSRFFPITFGQGTKVEIKR
402	1.4	4840	no binding (tested: 300 nM)	no binding (tested: 300 nM)	no binding (tested: 300 nM)	0.21	0.36	–	G1AA/FS30-16 (antibody, human IgG1, kappa, L234A L235A, V domains shown, human IgG1 with LALA mutation in CH2; also called FS30-16 mAb) VH: EVQLLESGGGLVQPGGSLRLSCAASGFTFSNYAMHWVRQAPGKGLEWVSTIDPTDGATNYADSVKGRFTISRDNSKNTLYLQMNSLRAEDTAVYYCARSKYYTYMQYVALDYWGQGTLVTVSS VL: EIVLTQSPGTLSLSPGERATLSCRASQSVSSSYLAWYQQKPGQAPRLLIYGASSRATGIPDRFSGSGSGTDFTLTISRLEPEDFAVYYCQQGSRFFPITFGQGTKVEIKR
